Experimental data as given in patent US20230201364A1 (BRIGHT PEAK THERAPEUTICS, published 2023).

Legend:
[1] = target: T1, Fc gamma receptor IIb (FcgRIIb, CD32b) (human, UniProt P31994 46-217, limits assumed); experiment: AlphaLISA competition or analogous assay for FcγRIIb (not described)
T1 construct: the kit is not described; also called FcRIIb
T1 sequence (looked up): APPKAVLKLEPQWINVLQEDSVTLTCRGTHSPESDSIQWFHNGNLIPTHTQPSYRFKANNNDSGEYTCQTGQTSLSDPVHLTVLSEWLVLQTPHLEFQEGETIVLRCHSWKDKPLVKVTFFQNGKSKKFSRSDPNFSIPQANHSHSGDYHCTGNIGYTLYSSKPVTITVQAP

CD20 = target: T2, CD20 (human, UniProt P11836 1-297, limits assumed); experiment: ELISA by a method analogous to the PD-1 ELISA; antigen reagent not described
T2 construct: The CD20 reagent of the ELISA is not described (analogous methods); also called human CD20
T2 sequence: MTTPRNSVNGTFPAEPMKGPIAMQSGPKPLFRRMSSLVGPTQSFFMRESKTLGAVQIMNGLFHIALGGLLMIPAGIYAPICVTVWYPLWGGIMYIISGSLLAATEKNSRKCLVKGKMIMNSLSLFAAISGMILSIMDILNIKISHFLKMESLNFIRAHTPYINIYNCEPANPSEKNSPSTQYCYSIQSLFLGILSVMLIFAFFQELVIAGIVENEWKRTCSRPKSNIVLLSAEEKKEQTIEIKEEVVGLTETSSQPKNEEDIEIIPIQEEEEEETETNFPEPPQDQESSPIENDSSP

[2] = target: T3, recombinant biotinylated human Fc gamma receptor I (FcγRI/CD64) (human, UniProt P12314 16-288, limits assumed, biotinylated); experiment: AlphaLISA competition; test molecule titrated against human IgG Fc acceptor beads for biotinylated FcγRI
T3 construct: also called FcgRI
Procedure: (§1) The interaction of the unmodified and of conjugated antibodies with human Fc gamma receptors I (FcγRI/CD64), with human Fc gamma receptors II (FcγRIIa/CD32), and with low affinity human Fc gamma receptors III FcγR3a/CD16 V158 were measured using the AlphaLISA® Human FcγR1/CD64 (AL3081C), FcγRIIa/CD32a 167H (AL3086C), and FcγRIII/CD16 176P/F158 (AL3471HV) binding Kits respectively (Perkin Elmer, Schwerzenbach, Switzerland).
(§2) After 90 min at 23° C. in the dark, AlphaLISA® signal was measured on an EnSpire plate reader (Excitation at 680 nm, Emission at 615 nm) from Perkin Elmer (Schwerzenbach, Switzerland).

[3] = target: T4, recombinant biotinylated human Fc gamma receptor IIa (FcγRIIa/CD32a 167H) (human, UniProt P12318 36-218, limits assumed, biotinylated); experiment: AlphaLISA competition; test molecule titrated against human IgG Fc acceptor beads for biotinylated FcγRIIa
T4 construct: also called FcgRIIa
T4 sequence (looked up): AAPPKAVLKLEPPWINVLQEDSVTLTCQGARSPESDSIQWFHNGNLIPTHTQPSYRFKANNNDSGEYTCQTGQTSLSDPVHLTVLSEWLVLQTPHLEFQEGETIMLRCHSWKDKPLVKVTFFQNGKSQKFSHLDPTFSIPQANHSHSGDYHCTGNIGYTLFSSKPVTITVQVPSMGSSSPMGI
Procedure: as §1, §2

[4] = target: T5, recombinant biotinylated human Fc gamma receptor IIIa (FcγRIIIa/CD16) (human, UniProt P08637 17-208, limits assumed, biotinylated); experiment: AlphaLISA competition; test molecule titrated against human IgG Fc acceptor beads for biotinylated FcγRIIIa
T5 construct: Allotype given inconsistently (V158 against 176P/F158); also called FcgRIIIa; FcγR3a
Procedure: as §1, §2

[5] = target: T6, recombinant biotinylated human neonatal Fc receptor (FcRn) (human, UniProt P55899 24-297; P61769 21-119, limits assumed, biotinylated); experiment: AlphaLISA competition at pH 6; test molecule titrated against human IgG acceptor beads for biotinylated human FcRn
T6 construct: also called human FcRn
Procedure: The interaction of the unmodified and of conjugated anti-PD1 antibodies with the human neonatal Fc receptor (FcRn) at pH 6 was measured using the AlphaLISA Human FcRn Binding Kit (AL3095C) from Perkin Elmer (Schwerzenbach, Switzerland).
After 90 min at 23° C. in the dark, AlphaLISA signal was measured on an EnSpire plate reader (Excitation at 680 nm, Emission at 615 nm) from Perkin Elmer (Schwerzenbach, Switzerland).

B1: CMP-032 (biosimilar Rituximab) (antibody, human IgG1, kappa)
heavy: not shown
light: QIVLSQSPAILSASPGEKVTMTCRASSSVSYIHWFQQKPGSSPKPWIYATSNLASGVPVRFSGSGSGTSYSLTISRVEAEDAATYYCQQWTSNPPTFGGGTKLEIKRTVAAPSVFIFPPSDEQLKSGTASVVCLLNNFYPREAKVQWKVDNALQSGNSQESVTEQDSKDSTYSLSSTLTLSKADYEKHKVYACEVTHQGLSSPVTKSFNRGEC
notes: Unconjugated parent anti-CD20 antibody (DAR 0); A biosimilar/generic rituximab was tested; also called generic rituximab
Work on B1 yielded a Kd [1] of 880 nM, a Kd (CD20) of 0.076 nM and a Kd [2] of 0.233 nM. It also gave a Kd [3] of 740 nM, a Kd [4] of 133 nM and a Kd [5] of 4.03 nM.
